The results in this text go back to US20120165244A1, “METHODS FOR BINDING LEWIS Y ANTIGEN” (priority 2008, published 2012).

A short description of data set [1]: Lethal sepsis model (LPS 40 mg/kg i.p.), survival. Type of data set: in vivo, Male FVB mice. The note with it: four i.v. doses of 2 mg/kg. As for the experimental part:
(§1) Male FVB mice (8-10 weeks old) were used to model sepsis in vivo. The Institutional Animal Care and Use Committee of the National Cheng Kung University approved procedures. In the chronic endotoxemia model, various concentrations of rTMD1 or rTMD proteins in equi-molar amounts were administrated by tail intravenous (i.v.) injection and LPS (20 mg/kg) or K. pneumoniae (5×10^2 CFU/mouse, BCRC) was administrated by intraperitoneal (i.p.) injection. After 6 or 12 hours, mice were sacrificed by pentobarbital anesthesia (50 mg/kg; i.p.). […] The half-life of rTMD1 in the circulation was determined by i.v. injection of rTMD1 (10 mg/kg, equals 436.64 nmole/kg) and serum samples were collected at various time intervals. The levels of rTMD1 in the collected sera were determined by a sandwich ELISA which employed anti-c-Myc monoclonal antibody and TM-H300 as capture and detection antibodies (both from Santa Cruz Biotechnology), respectively. […] Mortality was monitored every 6-12 hours until all mice in either experimental group died. […] Serum samples were collected at various time intervals and the amount of LPS was determined by Limulus amebocyte lysate test (Associates of Cape Cod, E. Falmouth, Mass.). […] Outgrowth of K. pneumoniae was quantified by plating serial dilutions of blood samples on blood agar plates and enumerating colonies after overnight incubation at 37° C.

The nature of data set [2]: Half-life of rTMD1 in the circulation (sandwich ELISA). Type of data set: in vivo, Male FVB mice. The note with it: mice. As for the experimental part: as §1
A general note: In an ELISA, binding on a coated surface is turned into a signal by an enzyme label.

The next data set has as its system RAW 264.7 cells. Kind of data set: Western blotting of LPS-induced signaling pathways in RAW 264.7 cells. It is filed as cell-based, murine. As for the experimental part: rTMD1 (0-50 μg/mL, equals 0-2.18 nmole/mL) pre-incubated without or with Escherichia coli (E. coli) LPS (LPS O111:B4, Sigma-Aldrich) in the absence or presence of Lewis Y (Le^y; Dextra Laboratories, Reading, UK) for 30 minutes was used to stimulate THP-1 or RAW 264.7 cells. Incubation period included 15 minutes for pIκB and IκB (B-9 and C-21, Santa Cruz Biotechnology, Santa Cruz, Calif., unless otherwise noted), 20 minutes for p38 (C-20) and pp38 (D-8), 30 minutes for ERK1/2 (K-23), pERK1/2 (E-4), lamin B2 (E-3, Zymed Laboratories, San Francisco, Calif.), NF-κB p50 (C-19) and NF-κB p65 nuclear translocation (C-20), and 24 hours for iNOS expression using a specific antibody (N-20).

Data set [3] in a line: Clearance of LPS in circulation (Limulus amebocyte lysate test). It is filed as in vivo. The note with it: LPS 20 mg/kg i.p.; rTMD1 10 mg/kg i.v. As for the experimental part: as §1

B1: rTMD1: recombinant human thrombomodulin N-terminal lectin-like domain (residues Ala1-Ala155) with 6×His tag and c-Myc epitope, Pichia pastoris expressed (protein)
chain: EFAPAEPQPGGSQCVEHDCFALYPGPATFLNASQICDGLRGHLMTVRSSVAADVISLLLNGDGGVGRRRLWIGLQLPPGCGDPKRLGPLRGFQWVTGDNNTSYSRWARLDLNGAPLCGPLCVAVSAAEATVPSEPIWEEQQCEVKADGFLCEFHFPAYLEDDDDKIEQKLISEEDLNSAVDHHHHHH
modifications: left off: small tags and cut ends
Consider B1, for which the survival in data set [1] (1 day after LPS challenge) stood at 100%; in data set [1] (4 days after LPS challenge) it was 60%. In data set [2] (i.v.), the “time detectable after each i.v. injection” value is at most 12 h. In data set [2] (i.v. 10 mg/kg), this molecule gave a half-life in circulation of 3 to 4 h. Moreover, in the data set on RAW 264.7 cells (FIG. 1E), the “LPS-induced nuclear translocation of NF-κB” value is listed as “inhibited in a dose-dependent fashion”. The “LPS-induced phosphorylation of ERK1/2 and p38” value in the data set on RAW 264.7 cells (FIG. 1F) is given as “inhibited”. Besides, the “LPS-induced phosphorylation and degradation of IκBα” value with RAW 264.7 cells (LPS 100 ng/mL, rTMD1 50 μg/mL (2.18 nmole/mL)) is given as “totally reversed”. In addition, in the data set with RAW 264.7 cells (RAW 264.7 cells, FIG. 1G), the “iNOS induction by LPS” value is listed as “inhibited”. In addition, in data set [3], the LPS clearance entry was “significantly enhanced”.
